In patent US20220396619A1 (Eli Lilly, published 2022):

How the values were obtained:
[1] = molecular target: T1, soluble human CD200R long isoform extracellular domain (ECD)-His polypeptide (human, UniProt Q8TD46 29-265); experiment: SPR (Biacore T200), antibody captured on Protein A, receptor ECD-His as analyte, 37 C, n = 3
T1 construct: Bought from R&D Systems, Cat. No. 10053-CD-050; also called Human CD200R long isoform ECD-His; human CD200R-ECD long isoform-His
T1 sequence: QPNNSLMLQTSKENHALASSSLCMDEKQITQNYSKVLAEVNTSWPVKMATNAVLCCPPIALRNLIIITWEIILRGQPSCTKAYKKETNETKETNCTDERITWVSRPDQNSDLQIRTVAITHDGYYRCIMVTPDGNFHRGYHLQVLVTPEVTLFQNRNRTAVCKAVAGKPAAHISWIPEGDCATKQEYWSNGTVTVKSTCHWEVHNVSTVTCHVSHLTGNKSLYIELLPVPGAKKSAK
Excerpt: (§1) A BIACORE™ T200 (GE Healthcare, Piscataway, N.J.) is used to measure the binding kinetics and affinities of Antibody A to soluble human CD200R long isoform extracellular domain (ECD)-His polypeptide (SEQ ID NO: 17) (R&D Systems Cat. No. 10053-CD-050) and soluble cynomolgus monkey CD200R long isoform ECD-His polypeptide (SEQ ID NO: 19). Cynomolgus monkey CD200R ECD long isoform-His is expressed in HEK293 or CHO cells and purified using Ni SEPHAROSE™ excel column (GE Healthcare Life Sciences) and size exclusion chromatography.
(§2) A Series S CM4 chip (GE Healthcare Ca. No. BR-1005-34) is prepared using the manufacturer's EDC/NHS amine coupling method (GE Healthcare Cat. No. BR-1000-50). Briefly, the surfaces of all 4 flow cells are activated by injecting a 1:1 mixture of EDC/NHS for 7 minutes at 10 μL/minute. Protein A (Calbiochem Cat. No. 539202) is diluted to 100 μg/mL in 10 mM acetate pH 4.5 buffer and immobilized for approximately 400 RU onto all 4 flow cells by 7 minute injection at a flow rate of 10 μL/minute. Un-reacted sites are blocked with a 7 minute injection of ethanolamine at 10 μL/minute. Injections of 2×10 μL of glycine pH 1.5 are used to remove any non-covalently associated protein. Running buffer is 1× HBS-EP+ (10 mM HEPES, 150 mM NaCl, 0.05% Tween-20, pH 7.6, Teknova Cat. No. H8022).
(§3) Binding is evaluated using multi-cycle kinetics by an antibody capture method. Samples are diluted in 1× HBS-EP+ running buffer with 0.25% IgG free BSA (Jackson Immuno Research Cat. No. 001-000-161). Each cycle is performed at 37° C. at a flow rate of 20 μL/min for antibody capture to the Protein A chip and 30 μL/min for analyte association and dissociation.

[2] = molecular target: T2, soluble cynomolgus monkey CD200R long isoform ECD-His polypeptide (cynomolgus monkey); experiment: as above
T2 construct: Expressed in HEK293 or CHO cells; also called cynoCD200R long isoform ECD-His; cynoCD200R-ECD long isoform-His
T2 chain: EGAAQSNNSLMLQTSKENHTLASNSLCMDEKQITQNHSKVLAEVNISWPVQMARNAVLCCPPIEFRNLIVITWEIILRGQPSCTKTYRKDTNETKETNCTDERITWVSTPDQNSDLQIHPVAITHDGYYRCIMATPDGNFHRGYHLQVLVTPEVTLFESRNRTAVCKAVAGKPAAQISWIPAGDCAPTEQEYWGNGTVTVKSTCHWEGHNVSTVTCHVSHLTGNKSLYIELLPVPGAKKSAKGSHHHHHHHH
Excerpt: as §1, §2, §3

[3] = molecular target: T3, Cynomolgus monkey CD200RLa (cynomolgus monkey); experiment: flow cytometry on CHO cells expressing the receptor; midpoint of titration, one-site saturation fit
T3 construct: also called cynoCD200RLa
T3 chain: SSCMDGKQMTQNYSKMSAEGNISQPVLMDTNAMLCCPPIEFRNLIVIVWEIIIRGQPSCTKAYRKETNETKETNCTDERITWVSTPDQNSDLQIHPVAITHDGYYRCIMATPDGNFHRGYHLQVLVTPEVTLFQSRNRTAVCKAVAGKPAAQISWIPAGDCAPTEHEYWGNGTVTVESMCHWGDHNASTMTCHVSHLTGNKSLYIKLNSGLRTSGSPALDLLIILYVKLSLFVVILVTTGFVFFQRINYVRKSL
Protocol: (§4) To perform flow cytometry, CD200R-expressing CHO cells are counted using a Vicell counter and pelleted by centrifugation at 1200 RPM, aspirated and resuspended in phosphate buffered saline (PBS). Cells are counted again and after another centrifugation are adjusted to 10⁶ cells/mL in flow cytometry wash buffer (PBS w/10% NGS & 2% FBS & 0.05% NaN₃) with Fc block (BD Biosciences). Cells are blocked on ice for 15 minutes. Next the tubes are centrifuged, aspirated, and washed once with cold wash buffer. After the wash, the cells are adjusted to 10⁶ cells/mL in wash buffer and plated at […] (50 μL) in a 96-well tissue culture plate (Corning 3799). Antibody A is titrated (1:3 dilutions) on the 96-well polystyrene plates (Corning 3879) starting at 30 μg/mL (final concentration) in cold wash buffer. Next, Antibody A is transferred at 50 μL/well into the Corning 3799 plate containing cells. The plates are incubated on ice for 45 minutes then washed twice with 150 μL cold wash buffer. Next, 100 μL secondary Goat anti-human IgG Fc-PE (Jackson Cat. No. 109-116-098 or Jackson Cat. No. 109-116-088) is added at a 1:500 or 1:400 dilution in wash buffer and incubated for 45 minutes on ice. Plates are washed twice and 200 μL propidium iodide (1:1000 dilution in wash buffer; Molecular Probes Cat. No. P3566) is added as the cell viability stain. The plates are covered with foil on ice. Flow cytometry is then performed using a Fortessa instrument acquiring with FACS Diva software (both from Becton Dickinson) and analyzing with FlowJo (version 10.5.3).
(§5) Antibody A is tested for its binding to recombinantly expressed isoforms of both human and cynomolgus monkey CD200R and the related activating cynomolgus monkey CD200RLa protein on Chinese Hamster Ovary (CHO) cell line surfaces using flow cytometry. The antibody is titrated onto CHO cells expressing the polypeptide of interest. The flow cytometry binding curves are fit using the one-site saturation binding model in GraphPad Prism.

[4] = molecular target: T4, Cynomolgus monkey CD200R long isoform (cynomolgus monkey); experiment: as above
T4 construct: Stably expressed on CHO cells; also called cynomolgus monkey CD200R long isoform on CHO cells
T4 chain: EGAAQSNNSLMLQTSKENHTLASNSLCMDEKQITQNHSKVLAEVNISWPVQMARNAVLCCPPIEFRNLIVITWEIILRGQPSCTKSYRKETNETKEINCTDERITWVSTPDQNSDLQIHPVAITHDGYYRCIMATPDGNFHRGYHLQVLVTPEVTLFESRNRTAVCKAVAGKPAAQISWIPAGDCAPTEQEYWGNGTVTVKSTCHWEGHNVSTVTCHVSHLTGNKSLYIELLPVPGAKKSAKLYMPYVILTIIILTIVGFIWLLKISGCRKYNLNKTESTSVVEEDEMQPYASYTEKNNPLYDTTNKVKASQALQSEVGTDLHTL
Protocol: as §4, §5

[5] = molecular target: T5, Human CD200R short isoform (human, UniProt Q8TD46 46-348); experiment: as above
T5 construct: Stably expressed on CHO cells; also called human CD200R short isoform on CHO cells
T5 sequence: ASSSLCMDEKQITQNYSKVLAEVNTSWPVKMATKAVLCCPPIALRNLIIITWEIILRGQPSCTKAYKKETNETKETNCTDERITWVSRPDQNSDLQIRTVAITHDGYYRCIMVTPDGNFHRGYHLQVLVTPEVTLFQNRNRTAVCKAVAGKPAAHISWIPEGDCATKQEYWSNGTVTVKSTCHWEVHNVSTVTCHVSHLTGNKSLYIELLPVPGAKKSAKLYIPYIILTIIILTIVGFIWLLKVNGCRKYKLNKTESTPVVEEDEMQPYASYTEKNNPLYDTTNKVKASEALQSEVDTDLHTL
Protocol: as §4, §5

[6] = molecular target: T6, Human CD200R long isoform (human, UniProt Q8TD46 25-348); experiment: as above
T6 construct: Stably expressed on CHO cells; also called human CD200R long isoform on CHO cells
T6 chain: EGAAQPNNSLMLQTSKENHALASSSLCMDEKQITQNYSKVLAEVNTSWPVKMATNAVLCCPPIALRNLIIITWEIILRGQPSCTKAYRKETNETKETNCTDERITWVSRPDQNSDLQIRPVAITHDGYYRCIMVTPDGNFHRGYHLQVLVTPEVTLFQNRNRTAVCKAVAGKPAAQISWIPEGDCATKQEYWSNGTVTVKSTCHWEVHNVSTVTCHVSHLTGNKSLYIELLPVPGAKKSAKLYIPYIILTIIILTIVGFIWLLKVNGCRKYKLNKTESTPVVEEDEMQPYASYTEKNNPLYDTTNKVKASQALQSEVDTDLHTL
Protocol: as §4, §5

B1: Antibody A (antibody, human IgG4 S228P, kappa, F234A L235A, V domains shown)
VH: QVQLVESGGGVVQPGRSLRLSCAASGFTFSRYGMHWVRQAPGKGLEWVAVIPYDGSNKYYADSVKGRFTISRDISKNTLYLQMNSLRAEDTAVYYCARRGYYDSSGYYYFYYGMDVWGQGTTVTVSS
VL: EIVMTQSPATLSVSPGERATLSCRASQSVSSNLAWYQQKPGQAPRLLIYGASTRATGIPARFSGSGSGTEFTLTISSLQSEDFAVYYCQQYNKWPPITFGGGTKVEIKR
notes: The control used beside it is IgG4-PAA; also called Anti-human CD200R (Antibody A)
[1]
  Kd: 34.8 nM
  Stoichiometry: 1.9
  koff: 0.00016 s⁻¹
  kon: 4700 M⁻¹ s⁻¹
[2]
  Kd: 93.2 nM
  Stoichiometry: 2.6
  koff: 0.00056 s⁻¹
  kon: 6200 M⁻¹ s⁻¹
[3]
  EC50: 3.7 µg/mL
[4]
  EC50: 2.3 µg/mL
[5]
  EC50: 1.1 µg/mL
[6]
  EC50: 3.2 µg/mL
